Measured values as given in patent publication US8603987 (GALAXY BIOTECH, dated 2013).

Key:
[1] = target: T1, FGFR2IIIb(S252W) on transfected human 293F cells (UniProt P21802-3 22-822); experiment: flow cytometry on 293F cells transfected with FGFR2IIIb(S252W)
T1 construct: whole, on cells
Procedure: (§1) Flow cytometry. After washing twice in cell sorting buffer (CSB: PBS/1% FBS/0.02% NaN_3), 2×10^5 cells were resuspended in 50 µl of CSB in a microtiter well and incubated with 50 µl of the anti-FGFR2 mAb to be tested (1 µg/50 µl) for 1 hr on ice. Cells were then washed twice in CSB and the bound antibodies detected by incubation with FITC-goat anti-mouse IgG (Jackson ImmunoResearch Laboratories) for 1 hr on ice. After washing twice in CSB, cells were analyzed on a FACScan (Becton Dickinson).
(§2) To confirm that the selected mAbs bind to the appropriate forms of FGFR2 on the cell membrane, flow cytometry was employed. KATO-III (ATCC HTB-103) and SNU-16 (ATCC CRL-5974) cells, which overexpress FGFR2IIIb, were used to test binding to that form of the receptor. […] Human 293F cells transfected with a gene for FGFRIIIc were used to test binding to that form, after verifying that none of the mAbs bind to the host 293F cells themselves. […] Finally, since the S252W mutation of FGFR2 is found in some cancer cells, binding of the mAbs to 293F cells transfected with an FGFR2IIIb gene constructed to contain that mutation (FGFR2IIIb(S252W)) was tested. As also seen in FIG. 7, all the mAbs bound to the FGFR2IIIb(S252W)-transfected cells. The ability to bind FGFR2IIIb(S252W) is a preferred property of mAbs of the invention.

[2] = target: T2, human FGFR2(beta)IIIb-Fc (amino acids 152-378, missing D1, fused to human Fc) (human, UniProt P21802-3 152-378); experiment: ELISA on the four FGFR2-Fc forms, fixed mAb concentration
T2 construct: range 152-378; The signal peptide used for secretion of the beta form is not described; also called beta form of FGFR2IIIb; not shown: human Fc, residues 216 to 446
T2 sequence (P21802 other isoform, or with tags, fused parts or gaps): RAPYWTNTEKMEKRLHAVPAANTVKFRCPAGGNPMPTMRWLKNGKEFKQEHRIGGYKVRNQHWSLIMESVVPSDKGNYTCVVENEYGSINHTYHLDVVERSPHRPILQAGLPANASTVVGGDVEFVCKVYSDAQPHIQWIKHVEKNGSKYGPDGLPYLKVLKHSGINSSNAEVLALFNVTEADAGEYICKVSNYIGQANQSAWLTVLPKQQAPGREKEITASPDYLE
Procedure: ELISA assay for mAb binding to FGFR2 fusion protein. ELISA plates were coated with goat anti-human IgG-Fc (2 µg/ml) overnight at 4° C. Then nonspecific binding sites were blocked with 2% BSA for 1 hr at RT. Plates were incubated with one of the FGFR2 fusion proteins described above (1 µg/ml) for 1 hr, followed by incubation with various concentrations of mAbs or hybridoma culture fluids for 1 hr. The bound mAb was detected with HRP-Goat anti-mouse antibody followed by washing, addition of TMB substrate (Sigma) and reading at 450 nm. In all ELISA assays, plates were washed 3 times between each step.
Figure 3: FIG. 3. Binding ELISA of mAbs GAL-FR21, GAL-FR22 and GAL-FR23 and negative control mIgG to FGFR2IIIb. Figure 4: FIG. 4. Binding ELISA of mAbs GAL-FR21, GAL-FR22 and GAL-FR23 and negative control mouse mAb 5G8 to each of the four forms of FGFR2—FGFR2IIIb, FGFR2(beta)IIIb, FGFR2(IIIc) and FGFR2(beta)IIIc—as fusion proteins with Fc. A fixed concentration of each mAb was used in the assay.

[3] = target: T3, FGFR2IIIb on KATO-III and SNU-16 human gastric tumor cells (human, UniProt P21802-3 22-822); experiment: flow cytometry on KATO-III and SNU-16 cells overexpressing FGFR2IIIb
T3 construct: whole, on cells; Endogenous receptor of human tumor cell lines; also called FGFR2IIIb on the cell membrane
T3 sequence (P21802 other isoform, or with tags, fused parts or gaps): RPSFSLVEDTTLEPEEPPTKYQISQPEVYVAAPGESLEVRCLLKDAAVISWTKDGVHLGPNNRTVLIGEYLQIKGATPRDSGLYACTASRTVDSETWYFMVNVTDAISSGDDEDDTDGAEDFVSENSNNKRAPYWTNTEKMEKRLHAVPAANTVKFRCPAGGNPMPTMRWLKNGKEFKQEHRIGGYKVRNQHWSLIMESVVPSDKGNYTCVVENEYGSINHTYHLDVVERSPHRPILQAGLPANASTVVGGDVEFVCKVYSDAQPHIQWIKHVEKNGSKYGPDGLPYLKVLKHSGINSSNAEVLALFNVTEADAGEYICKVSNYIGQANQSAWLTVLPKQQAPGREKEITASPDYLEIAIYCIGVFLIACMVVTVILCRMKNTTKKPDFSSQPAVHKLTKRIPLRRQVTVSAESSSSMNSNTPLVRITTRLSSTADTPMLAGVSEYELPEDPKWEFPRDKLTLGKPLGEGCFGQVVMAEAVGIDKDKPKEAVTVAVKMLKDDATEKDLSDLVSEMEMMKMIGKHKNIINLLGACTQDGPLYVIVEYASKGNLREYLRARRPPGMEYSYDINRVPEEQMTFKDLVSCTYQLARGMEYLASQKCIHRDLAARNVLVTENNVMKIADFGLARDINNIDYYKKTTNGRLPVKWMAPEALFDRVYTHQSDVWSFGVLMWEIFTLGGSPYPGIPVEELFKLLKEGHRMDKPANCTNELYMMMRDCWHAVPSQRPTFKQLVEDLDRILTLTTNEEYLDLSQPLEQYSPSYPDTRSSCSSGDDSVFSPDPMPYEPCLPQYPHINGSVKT
Procedure: as §1, §2

[4] = target: T4, FGFR2IIIc on transfected human 293F cells (UniProt P21802 22-821); experiment: flow cytometry on 293F cells transfected with FGFRIIIc
T4 construct: whole, on cells; also called FGFRIIIc
T4 sequence (P21802 22-821): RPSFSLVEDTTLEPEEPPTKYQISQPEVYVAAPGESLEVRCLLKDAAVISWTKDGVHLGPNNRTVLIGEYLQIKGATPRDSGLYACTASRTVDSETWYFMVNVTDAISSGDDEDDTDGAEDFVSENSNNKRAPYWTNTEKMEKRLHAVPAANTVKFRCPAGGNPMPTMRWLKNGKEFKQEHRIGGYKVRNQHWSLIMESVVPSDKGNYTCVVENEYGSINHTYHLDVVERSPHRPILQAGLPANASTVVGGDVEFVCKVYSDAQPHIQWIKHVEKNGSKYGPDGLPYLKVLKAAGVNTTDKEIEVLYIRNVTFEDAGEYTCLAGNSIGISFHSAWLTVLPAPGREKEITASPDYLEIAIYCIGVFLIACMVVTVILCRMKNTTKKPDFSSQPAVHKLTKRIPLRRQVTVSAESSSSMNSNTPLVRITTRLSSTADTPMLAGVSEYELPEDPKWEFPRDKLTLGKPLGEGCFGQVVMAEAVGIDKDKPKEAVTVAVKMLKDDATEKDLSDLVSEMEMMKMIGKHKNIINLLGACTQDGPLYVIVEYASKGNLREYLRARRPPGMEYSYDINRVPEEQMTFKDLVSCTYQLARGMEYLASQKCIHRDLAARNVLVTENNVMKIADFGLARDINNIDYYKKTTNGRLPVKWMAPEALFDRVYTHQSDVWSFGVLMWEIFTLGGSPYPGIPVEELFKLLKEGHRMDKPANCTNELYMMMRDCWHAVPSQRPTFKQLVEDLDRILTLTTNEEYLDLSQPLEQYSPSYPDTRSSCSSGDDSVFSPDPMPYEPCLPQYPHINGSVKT
Procedure: as §1, §2

[5] = target: T5, human FGFR2IIIb-Fc (alpha form, entire ECD amino acids 1-378 fused to human Fc) (human, UniProt P21802-3 22-378); experiment: ELISA, FGFR2IIIb-Fc captured by anti-human IgG-Fc
T5 construct: range 1-378; Secreted from 293F cells and purified on protein A/G; not shown: human Fc, residues 216 to 446
T5 sequence (P21802 other isoform, or with tags, fused parts or gaps): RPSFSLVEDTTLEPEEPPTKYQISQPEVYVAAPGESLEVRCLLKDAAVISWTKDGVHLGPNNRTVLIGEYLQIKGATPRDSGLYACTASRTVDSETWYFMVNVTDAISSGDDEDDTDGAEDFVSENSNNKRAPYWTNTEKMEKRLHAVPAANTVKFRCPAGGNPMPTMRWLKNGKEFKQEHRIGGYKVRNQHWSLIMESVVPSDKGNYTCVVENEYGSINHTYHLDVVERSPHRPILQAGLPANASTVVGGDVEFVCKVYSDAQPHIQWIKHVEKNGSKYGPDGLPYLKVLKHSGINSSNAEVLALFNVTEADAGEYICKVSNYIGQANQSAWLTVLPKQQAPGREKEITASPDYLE
Procedure: (§3) To determine the ability of the mAbs to bind to FGFR2 from species other than human, ELISA assays were used. ELISA wells were coated with 2 µg/ml of goat anti-human IgG-Fc overnight at 4° C. After blocking with 2% BSA for 1 hr at RT, the wells were incubated with 0.2 µg/ml of FGFR2IIIb-Fc for 1 hr, where the FGFRIIIb in the fusion protein was either human, mouse, cynomolgus monkey or chimpanzee FGFRIIIb. The wells were then incubated with various concentrations of GAL-FR21 or GAL-FR22 mAb. The bound mAbs were detected by addition of HRP-conjugated goat anti-mouse IgG-Fc and then TMB substrate. […] A similar experiment with chimpanzee FGFR2 gave the same results as with cynomolgus monkey FGFR2: GAL-FR21 bound to chimpanzee FGFR2 as well as (indistinguishably from) human FGFR2, while GAL-FR22 bound to chimpanzee FGFR2 moderately well (within about 100-fold of human FGFR2). […] Binding to FGFR2 from such other species makes testing of the mAbs in those animal species easier to conduct.

[6] = target: T6, Chimpanzee FGFR2IIIb-Fc (human FGFR2IIIb ECD with residue 186 methionine to threonine, fused to human Fc) (chimpanzee; human, UniProt P21802-3 22-378); experiment: ELISA, FGFR2IIIb-Fc captured by anti-human IgG-Fc
T6 construct: range 1-378; Built from the human FGFR2IIIb-Fc construct; also called chimp FGFR2IIIb; not shown: human Fc, residues 216 to 446
T6 sequence (P21802 other isoform, or with tags, fused parts or gaps): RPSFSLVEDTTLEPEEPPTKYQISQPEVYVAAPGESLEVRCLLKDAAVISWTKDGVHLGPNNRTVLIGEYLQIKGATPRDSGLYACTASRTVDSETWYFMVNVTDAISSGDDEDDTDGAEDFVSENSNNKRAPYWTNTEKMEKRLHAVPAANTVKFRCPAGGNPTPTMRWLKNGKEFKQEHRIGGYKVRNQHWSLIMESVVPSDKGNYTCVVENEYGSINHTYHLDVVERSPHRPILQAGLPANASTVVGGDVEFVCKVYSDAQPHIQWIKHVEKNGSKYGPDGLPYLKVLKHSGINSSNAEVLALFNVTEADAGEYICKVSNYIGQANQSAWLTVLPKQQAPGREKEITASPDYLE
Procedure: as §3

[7] = target: T5, human FGFR2IIIb-Fc (alpha form, entire …); experiment: estimate from the 50% inhibition point of the competition ELISA on FGFR2IIIb-Fc against biotinylated GAL-FR21
Procedure: To compare the binding affinity of HuGAL-FR21 with that of the mouse mAb GAL-FR21, a competitive binding experiment was performed using standard ELISA technology. Specifically, ELISA wells were coated with 2 μg/ml of goat anti-human IgG-Fc overnight at 4° C. After blocking with 2% BSA for 1 hr at RT, the wells were incubated with 0.5 μg/ml of FGFR2IIIb-Fc. The wells were then incubated with biotinylated GAL-FR21 mAb (0.05 μg/ml) in the presence of increasing concentrations of unlabeled GAL-FR21, HuGAL-FR21 or control human antibody hIgG. The level of biotinylated GAL-FR21 bound was determined by the addition of HRP-streptavidin and substrate. […] HuGAL-FR21 may also be tested in any of the biological assays for FGFR2 activity described herein, e.g., inhibition of binding of FGF2 or FGF7 to FGFR2, and will inhibit FGFR2 activity comparably to GAL-FR21.

T1 sequence (P21802 other isoform, or with tags, fused parts or gaps S252W S252W): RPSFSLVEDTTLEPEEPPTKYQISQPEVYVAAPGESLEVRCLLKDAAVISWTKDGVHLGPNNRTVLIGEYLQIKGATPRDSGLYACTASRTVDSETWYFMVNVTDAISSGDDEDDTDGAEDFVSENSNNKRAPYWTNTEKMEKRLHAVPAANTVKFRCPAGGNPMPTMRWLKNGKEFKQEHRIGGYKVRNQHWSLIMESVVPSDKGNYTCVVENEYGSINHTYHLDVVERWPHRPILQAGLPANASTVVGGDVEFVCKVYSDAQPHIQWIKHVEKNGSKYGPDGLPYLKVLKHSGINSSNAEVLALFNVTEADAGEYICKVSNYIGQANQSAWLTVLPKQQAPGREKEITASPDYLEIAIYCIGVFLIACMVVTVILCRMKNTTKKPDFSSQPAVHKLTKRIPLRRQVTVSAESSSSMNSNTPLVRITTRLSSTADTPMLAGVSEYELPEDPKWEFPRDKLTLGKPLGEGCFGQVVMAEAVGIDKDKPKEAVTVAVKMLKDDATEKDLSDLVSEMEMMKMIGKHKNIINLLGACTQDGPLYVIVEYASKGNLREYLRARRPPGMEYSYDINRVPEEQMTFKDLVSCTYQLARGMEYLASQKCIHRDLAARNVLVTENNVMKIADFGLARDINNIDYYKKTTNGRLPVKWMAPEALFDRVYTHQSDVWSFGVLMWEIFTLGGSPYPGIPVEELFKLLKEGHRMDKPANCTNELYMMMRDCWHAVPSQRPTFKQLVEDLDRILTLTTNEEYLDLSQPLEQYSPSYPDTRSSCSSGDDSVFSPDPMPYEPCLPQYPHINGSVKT

| binding result [1] | binding result [2] | binding result [3] | binding result [4] | binding result [5] | binding result [6] | Ka [7] | Binder |
| --- | --- | --- | --- | --- | --- | --- | --- |
| binds | binds | binds | no binding (tested: 1 µg/50 µl) | binds | binds | – | GAL-FR21 (antibody, V domains shown, Mouse monoclonal antibody from a hybridoma; also called mouse GAL-FR21; ATCC PTA-9586) VH: QVQLQQPGAEVVKPGASVKMSCKASGYIFTTYNVHWVKQTPGQGLEWIGSIYPDNGDTSYNQNFKGKATLTADKSSSTAYIQLSSLTSEDSAVYYCARGDFAYWGQGTLVTVSV VL: NIVMTQSPKSMSMSVGDRVSITCKASQGVSNDVAWYQKKPGQSPKLLIYSASYRYTGVPDRFTGSGSGTDFTFTISNVQAEDLAVYYCQQHSTTPYTFGGGTKLEIK |
| binds | binds | binds | binds | binds | binds | – | GAL-FR22 (antibody, V domains shown, Mouse monoclonal antibody from a hybridoma; also called GAL-FG22; ATCC PTA-9587) VH: QVQLKQSGPGLVQPSQSLSITCTVSGFSLTSFGVHWVRQSPGKGLEWLGVIWSGGSTDYNADFRSRLSISKDNSKSQIFFKMNSLQPDDTAIYYCANFYYGYDDYVMDYWGQGTSVTVSS VL: DIQMTQSPSSLSASLGGRVTITCKASQDIKNYIAWYQHKPGKSPRLLIHYTSTLQPGVPSRFSGSGSGRDYSFSISNLEPEDIATYYCLQYDDLYMFGGGTKLDIK |
| – | – | – | – | – | – | ≥ 1e+09 M⁻¹ | HuGAL-FR21 (antibody, human IgG1, kappa, V domains shown, Humanized IgG1, kappa; also called humanized GAL-FR21) VH: QVQLVQSGAEVKKPGSSVKVSCKASGYIFTTYNVHWVRQAPGQGLEWIGSIYPDNGDTSYNQNFKGRATITADKSTSTAYMELSSLRSEDTAVYYCARGDFAYWGQGTLVTVSS VL: DIQMTQSPSSLSASVGDRVTITCKASQGVSNDVAWYQQKPGKAPKLLIYSASYRYTGVPSRFSGSGSGTDFTFTISSLQPEDIATYYCQQHSTTPYTFGQGTKLEIKR |
